# Results published in patent US7038112B2, “Fatty acid elongases” (Miami University, priority 1997, dated 2006).
# Read-outs that look alike come from different tables or passages of the source.
# B1: FAE1: Known Arabidopsis FAE1 elongase β-ketoacyl synthase expressed in yeast, used as comparator (protein, UniProt Q38860 1-506, looked up)
# 3-ketoacyl-CoA synthase 18: MTSVNVKLLYRYVLTNFFNLCLFPLTAFLAGKASRLTINDLHNFLSYLQHNLITVTLLFAFTVFGLVLYIVTRPNPVYLVDYSCYLPPPHLKVSVSKVMDIFYQIRKADTSSRNVACDDPSSLDFLRKIQERSGLGDETYSPEGLIHVPPRKTFAASREETEKVIIGALENLFENTKVNPREIGILVVNSSMFNPTPSLSAMVVNTFKLRSNIKSFNLGGMGCSAGVIAIDLAKDLLHVHKNTYALVVSTENITQGIYAGENRSMMVSNCLFRVGGAAILLSNKSGDRRRSKYKLVHTVRTHTGADDKSFRCVQQEDDESGKIGVCLSKDITNVAGTTLTKNIATLGPLILPLSEKFLFFATFVAKKLLKDKIKHYYVPDFKLAVDHFCIHAGGRAVIDELEKNLGLSPIDVEASRSTLHRFGNTSSSSIWYELAYIEAKGRMKKGNKAWQIALGSGFKCNSAVWVALRNVKASANSPWQHCIDRYPVKIDSDLSKSKTHVQNGRS
# Tests used:
# [1] = biological target: T1, EL2 (Arabidopsis thaliana, UniProt Q9SYZ0); assay: 18:0-CoA elongation by EL2 microsomes in standard reaction mix containing cerulenin; assay type: biochemical
# T1 construct: Yeast cultures containing full-length EL1 in λYES and full-length EL2 in pYEUra3 were grown in the presence of galactose or glucose; made in house; microsomes of galactose-induced cells
# T1 sequence (Q9SYZ0 36-493): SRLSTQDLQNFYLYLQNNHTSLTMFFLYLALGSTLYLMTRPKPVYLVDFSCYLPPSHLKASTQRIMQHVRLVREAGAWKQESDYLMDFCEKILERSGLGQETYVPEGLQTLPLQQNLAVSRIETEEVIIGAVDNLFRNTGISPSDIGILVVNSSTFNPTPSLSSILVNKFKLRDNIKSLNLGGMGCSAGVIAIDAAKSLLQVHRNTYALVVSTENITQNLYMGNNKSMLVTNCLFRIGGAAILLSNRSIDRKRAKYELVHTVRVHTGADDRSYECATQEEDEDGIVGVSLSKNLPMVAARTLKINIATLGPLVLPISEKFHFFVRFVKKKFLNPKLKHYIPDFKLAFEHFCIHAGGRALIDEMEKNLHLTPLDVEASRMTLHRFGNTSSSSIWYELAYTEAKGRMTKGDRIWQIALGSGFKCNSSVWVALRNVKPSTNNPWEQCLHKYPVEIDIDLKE
# Description: (§1) Fatty acid elongase activity was measured essentially as described in Hlousek-Radojcic, A. et al., Plant J. 8:803–809 (1995). Briefly, the standard elongation reaction mix contained 80 mM Hepes-KOH, pH 7.2, 20 mM MgCl2, 500 μM NADPH, 1 mM ATP, 100 μM malonyl-CoA, 10 μM CoA-SH and 15 μM radioactive acyl-CoA substrate. The radiolabeled substrate was either [1^−14C]18:1-CoA (50 uCi μmol^−1), [1^−14C]18:0-CoA (55 uCi μmol^−1), or [1^−14C]16:0-CoA (54 uCi μmol^−1). The reaction was initiated by the addition of yeast microsomes (5 μg protein) and the mixture incubated at 30° C. for the indicated period of time. The final reaction volume was 25 μl.
# (§2) Methyl esters of the acyl-CoA elongation products were prepared as described in Example 1. Methyl esters were separated on reversed phase silica gel KC18 TLC plates (Whatman, […] thick), quantified by phosphorimaging, and analyzed on by ImageQuant software (Molecular Dynamics, Inc., Sunnyvale, Calif.). The detection limit for each product is about 0.001 nanomoles per min. per mg microsomal protein, depending on the phosphorimage exposure time.
# (§3) In a third experiment, microsomes from induced and uninduced cultures containing EL1 or EL2 were incubated in the absence of cofactors involved in the β-ketoacyl condensation reaction. Cultures were induced and microsomes were prepared as described in Example 2. In vitro assays were carried out as described in Example 2, except that either ATP, CoASH or both were omitted from the enzyme reaction mixture.
# [2] = biological target: T2, EL1 (Arabidopsis thaliana, UniProt Q9MAM3); assay: 18:0-CoA elongation by EL1 microsomes in standard reaction mix containing cerulenin; assay type: biochemical
# T2 construct: Yeast cultures containing full-length EL1 in λYES and full-length EL2 in pYEUra3 were grown in the presence of galactose or glucose; made in house; microsomes of galactose-induced cells
# Description: as §1, §2, §3
# [3] = In vitro fatty acid elongation assay with yeast microsomes, 18:0 acyl-CoA substrate; assay type: biochemical, Saccharomyces cerevisiae
# Description: (§4) Transformed yeast cells were grown in the presence of either glucose or galactose (2% w/v) as described in Example 1. Cells were harvested by centrifugation at 5000×g for 10 min and washed with 10 ml ice cold isolation buffer (IB), which contains 80 mM Hepes-KOH, pH 7.2, 5 mM EGTA, 5 mM EDTA, 10 mM KC1, 320 mM sucrose and 2 mM DTT). Cells were then resuspended in enough IB to fill a 1.7 ml tube containing 700 μl of 0.5 μm glass beads and yeast microsomes were isolated from the cells essentially as described in Tillman, T. and Bell, R., J. Biol. Chem. 261:9144–9149 (1986). The microsomal membrane pellet was recovered by centrifugation at 252,000×g for 60 min. The pellet was rinsed by resuspending in 40 ml fresh IB and again recovered by centrifugation at 252000×g for 60 min. Microsomal pellets were resuspended in a minimal volume of IB, and the protein concentration adjusted to 2.5 μg μl^−1 by addition of IB containing 15% glycerol. Microsomes were frozen on dry ice and stored at −80° C. The protein concentration in microsomes was determined by the Bradford method (Bradford, 1976).
# as §1, §2
# (§5) Yeast cultures containing full-length EL1 in λYES and full-length EL2 in pYEUra3 were grown in the presence of galactose or glucose as described in Example 2. Microsomes were then prepared from each of the cultures and fatty acid elongation assays were carried out as described in Example 2.
# (§6) In the first experiment, microsomes were prepared from galactose-induced cultures of EL1, EL2 and FAE1, and incubated with either [1-^14C] 18:0 acyl-CoA or [1-^14C] 18:1 acyl-CoA as substrate. The amounts of various reaction products synthesized after 30 minutes (min) were determined as described in Example 2.
# In a second experiment, microsomes were prepared from galactose-induced and from glucose-repressed yeast cultures containing EL1 or EL2 coding sequences. The microsomal preparations were incubated with either 18:0 acyl-CoA or 18:1 acyl-CoA as substrate and the fatty acid reaction products determined as described above. […]
# [4] = test system: Saccharomyces cerevisiae strain AB1380; assay: Fatty acid composition of yeast cells transformed with pYEUra3/FAE1; assay type: cell-based; conditions: galactose-induced yeast containing the FAE1 coding sequence
# Description: Yeast transformed with pYEUra3 having FAE1 operably linked to the GAL1 promoter were grown in the presence of galactose or glucose and were analyzed for the expression of FAE1. As a control, yeast transformed with pYEUra3 containing no insert were also assayed. Analysis of such control preparations yielded fatty acid compositions and fatty acid elongation rates similar to those of yeast transformed with pYEUra3/FAE1. and grown with glucose as the carbon source.
# The fatty acid composition of yeast cells grown in the presence of galactose was compared to that of cells grown in the presence of glucose, to determine if VLCFA were found in the galactose-induced cells.
# Transformed yeast cells were grown overnight in YPD media at 30° C. with vigorous shaking. One hundred μl of the overnight culture were used to inoculate 40 ml of complete minimal uracil dropout media (CM-Ura) supplemented with either glucose or galactose (2% w/v). Cultures were grown at 30° C. to an OD600 of approximately 1.3 to 1.5. Cells were harvested by centrifugation at 5000×g for 10 min. Total lipids were extracted from the cells with 2 volumes of 4N KOH in 100% methanol for 60 min. at 80° C. […] Methyl esters were analyzed on an HP 5890 series II gas chromatograph equipped with a 5771MSD and 7673 auto injector (Hewlett-Packard, Cincinnati, Ohio.). […]
# [5] = assay type: biochemical, Saccharomyces cerevisiae
# Description: as §4, §1, §2, §5, §6
# In a second experiment, microsomes were prepared from galactose-induced and from glucose-repressed yeast cultures containing EL1 or EL2 coding sequences. The microsomal preparations were incubated with either 18:0 acyl-CoA or 18:1 acyl-CoA as substrate and the fatty acid reaction products determined as described above.
# [6] = In vitro fatty acid elongation assay with yeast microsomes, 16:0 acyl-CoA substrate; assay type: biochemical, Saccharomyces cerevisiae
# Description: as §4, §1, §2
# [7] = EL2, galactose-induced, +Cer 0.01 mM cerulenin, average of two experiments
# [8] = EL1, galactose-induced, +Cer 0.01 mM cerulenin, average of two experiments
# [9] = 18:0-CoA substrate, galactose-induced, 30 min, first experiment
# [10] = 18:1-CoA substrate, galactose-induced, 30 min, first experiment
# [11] = microsomes from galactose-induced cells
# T2 sequence (Q9MAM3 9-528 limits assumed): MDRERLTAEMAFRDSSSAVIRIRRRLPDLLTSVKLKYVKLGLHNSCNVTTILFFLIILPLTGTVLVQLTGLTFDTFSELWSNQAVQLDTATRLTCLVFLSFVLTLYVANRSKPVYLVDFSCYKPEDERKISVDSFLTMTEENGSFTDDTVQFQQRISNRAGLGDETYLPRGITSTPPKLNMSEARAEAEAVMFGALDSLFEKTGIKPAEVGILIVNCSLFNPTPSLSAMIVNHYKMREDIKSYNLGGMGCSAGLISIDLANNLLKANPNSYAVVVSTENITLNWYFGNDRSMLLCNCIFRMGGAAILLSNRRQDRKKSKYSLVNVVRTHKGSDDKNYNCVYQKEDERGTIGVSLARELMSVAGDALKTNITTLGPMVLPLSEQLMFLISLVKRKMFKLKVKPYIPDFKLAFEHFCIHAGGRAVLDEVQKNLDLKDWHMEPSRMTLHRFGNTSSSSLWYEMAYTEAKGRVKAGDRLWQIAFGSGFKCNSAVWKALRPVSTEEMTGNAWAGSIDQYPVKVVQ
molecule,measurement,setting,value
C/C=C/C/C=C/CCC(=O)[C@H]1O[C@H]1C(N)=O [cerulenin],inhibition of KAS activity of EL2,[1]; 0.01 mM cerulenin,does not inhibit
same,20:0 product as a percent of total products formed,[1]; [7],41.8%
same,22:0 product as a percent of total products formed,[1]; [7],16.1%
same,24:0 product as a percent of total products formed,[1]; [7],20.4%
same,26:0 product as a percent of total products formed,[1]; [7],21.8%
same,Total products as a percent of total products formed,[1]; [7],100.0%
same,inhibition of KAS activity of EL1,[2]; 0.01 mM cerulenin,does not inhibit
same,20:0 product as a percent of total products formed,[2]; [8],46.7%
same,22:0 product as a percent of total products formed,[2]; [8],16.2%
same,24:0 product as a percent of total products formed,[2]; [8],17.7%
same,26:0 product as a percent of total products formed,[2]; [8],19.4%
same,Total products as a percent of total products formed,[2]; [8],100.0%
B1,(%) 20:0 acyl-CoA product,[3]; [9],64.3%
same,(%) 22:0 acyl-CoA product,[3]; [9],18.6%
same,(%) 24:0 acyl-CoA product,[3]; [9],10.7%
same,(%) 26:0 acyl-CoA product,[3]; [9],6.3%
same,(%) Total acyl-CoA products,[3]; [9],100.0%
same,"Rate, 20:0 acyl-CoA product",[3]; [9],0.369 Nanomoles/minute/mg of microsomal protein
same,"Rate, 22:0 acyl-CoA product",[3]; [9],0.113 Nanomoles/minute/mg of microsomal protein
same,"Rate, 24:0 acyl-CoA product",[3]; [9],0.065 Nanomoles/minute/mg of microsomal protein
same,"Rate, 26:0 acyl-CoA product",[3]; [9],0.038 Nanomoles/minute/mg of microsomal protein
same,"Rate, Total acyl-CoA products",[3]; [9],0.585 Nanomoles/minute/mg of microsomal protein
same,synthesis of 20:0 CoA from the 18:0 CoA substrate,[3]; microsomes from induced yeast,5.1 nmol mg protein^−1
same,very long chain fatty acids in transformed yeast cells,[4],appearance of both 20:1 and 22:1 acyl-CoA products
same,"increase in 18:1 CoA elongation, microsomes from induced vs uninduced cells",[5],about 18 fold
same,(%) 20:1 acyl-CoA product,[5]; [10],84.6%
same,(%) 22:1 acyl-CoA product,[5]; [10],15.4%
same,(%) 24:1 acyl-CoA product,[5]; [10],0.0%
same,(%) 26:1 acyl-CoA product,[5]; [10],0.0%
same,(%) Total acyl-CoA products,[5]; [10],100.0%
same,"Rate, 20:1 acyl-CoA product",[5]; [10],1.131 Nanomoles/minute/mg of microsomal protein
same,"Rate, 22:1 acyl-CoA product",[5]; [10],0.206 Nanomoles/minute/mg of microsomal protein
same,"Rate, 24:1 acyl-CoA product",[5]; [10],0.0 Nanomoles/minute/mg of microsomal protein
same,"Rate, 26:1 acyl-CoA product",[5]; [10],0.0 Nanomoles/minute/mg of microsomal protein
same,"Rate, Total acyl-CoA products",[5]; [10],1.337 Nanomoles/minute/mg of microsomal protein
same,rate of elongation of oleoyl-CoA relative to rate of elongation of 16:0-CoA,[5]; [11],about 2 fold
same,rate of elongation of oleoyl-CoA relative to rate of elongation of 18:0-CoA,[5]; [11],~3 fold
same,"FAE1 elongase KAS activity, difference in 16:0 elongation rates between induced and uninduced microsomes",[6]; induced minus uninduced,5.7 nmol mg protein^−1
same,"16:0-CoA elongation by microsomes from induced cells, higher than uninduced cells",[6]; induced vs uninduced,more than 50%
same,total rate of elongation of [14C]16:0-CoA,"[6]; microsomes from induced cells, at 30 min",15.8 nmol mg protein^−1
same,synthesis of 20:0 CoA from the 16:0 CoA substrate,[6]; microsomes from induced yeast,4.2 nmol mg protein^−1
